Our source for the stoichiometry N values is PMC7327177.

Test [1] addresses Heme A synthase from Aquifex aeolicus (Aquifex aeolicus strain VF5) (UniProt O66543). Briefly: cross-linking; 0.5/3.5 mM BS3 or 0.5 mM DSS, room temperature, 30 min, quenched with 50 mM Tris-HCl pH 7.5, then 90°C for 10 min and SDS-PAGE.
Test [2] shares this target. Briefly: SDS-PAGE + MALDI-TOF MS; purified AaHAS on 4 to 12% bis-Tris NuPAGE; incubated with 10 mM DTT at room temperature or 70°C for 10 min; masses of the two bands by MALDI-TOF MS (data not shown).
The target is the same in test [3]. The test can be described thus: native MS; LILBID-MS, additionally desalted AaHAS (without NaCl; 20 mM Tris-HCl pH 7.4, 0.15% DM), harsh laser mode, negative-ion mode.
Test [4] shares this target. Briefly: native gel or EMSA; BN-PAGE, Novex 4 to 16% bis-Tris gel, purified AaHAS in DM; band at about 200 kDa, conversion factor 1.8 gives 110 kDa.
For test [5] the target is unchanged. Briefly: SEC-MALS; 150 μl AaHAS at ~2 mg/ml, Superdex 200 10/300 GL, 20 mM Tris-HCl pH 7.4, 150 mM NaCl, 0.15% DM, 4°C.
Test [6] shares this target. Briefly: native MS; LILBID-MS, AaHAS 2 mg/ml, in the presence of 150 mM NaCl, harsh laser mode, negative-ion mode.
For test [7] the target is unchanged. Briefly: cryo-EM structure; single-particle cryo-EM of purified AaHAS (2.5 mg/ml) in DM; map at 4.2 Å with C3 symmetry, 4.6 Å without applied symmetry.

Where “and” joins values, the source holds several entries; their conditions need not be identical. Equal entries are not always repeated.

With “Heme A synthase from Aquifex aeolicus (from UniProt O66543 2-296) (enzyme)”, the stoichiometry N is 2 and 3 in test [1]; 3 in test [2]; 2 and 3 in test [3]; 3 in test [4]; 3 in test [5]; 3 in test [6]. This substance also showed a stoichiometry N in test [7] of 3.
